Legend:
Experiment in all cases: MST
[1] = molecular target: R663H human β-cardiac 25-hep HMM (UniProt P12883)
[2] = molecular target: WT human β-cardiac sS1 (short S1) (human) (UniProt P12883)
[3] = molecular target: R663H human β-cardiac sS1 (human) (UniProt P12883)

**Q.** With “C0-C7 fragment of myosin binding protein-C (MyBP-C) (domain or fragment)” as the substance, how does the Kd [1] read?
**A.** Its Kd is 0.9 µM.

**Q.** For “proximal S2 of human β-cardiac myosin (from UniProt P12883 1-1935) (domain or fragment)”, which Kd [2] is on record?
**A.** Its Kd is 67 µM.

**Q.** What about the Kd [3] of the same substance?
**A.** The Kd was 50 µM.
